Laboratory results published in patent US20150224177A1 (priority 2014, published 2015).
“Also recorded” adds a separate entry of the source.

Columns and labels:
Yersinia pestis = assay: microbe, parasite or virus in culture; format: cell-based
B. pseudomallei isolates = assay: microbe, parasite or virus in culture; format: cell-based, Burkholderia pseudomallei
Burkholderia mallei = assay: microbe, parasite or virus in culture; format: cell-based
[1] = tested on: B. pseudomallei strains 1026b and MSHR 305; format: cell-based, Burkholderia pseudomallei
Bacillus anthracis = format: cell-based

B1: bovine lactoferrin (protein, UniProt P24627 20-708, looked up)
Lactotransferrin: APRKNVRWCTISQPEWFKCRRWQWRMKKLGAPSITCVRRAFALECIRAIAEKKADAVTLDGGMVFEAGRDPYKLRPVAAEIYGTKESPQTHYYAVAVVKKGSNFQLDQLQGRKSCHTGLGRSAGWIIPMGILRPYLSWTESLEPLQGAVAKFFSASCVPCIDRQAYPNLCQLCKGEGENQCACSSREPYFGYSGAFKCLQDGAGDVAFVKETTVFENLPEKADRDQYELLCLNNSRAPVDAFKECHLAQVPSHAVVARSVDGKEDLIWKLLSKAQEKFGKNKSRSFQLFGSPPGQRDLLFKDSALGFLRIPSKVDSALYLGSRYLTTLKNLRETAEEVKARYTRVVWCAVGPEEQKKCQQWSQQSGQNVTCATASTTDDCIVLVLKGEADALNLDGGYIYTAGKCGLVPVLAENRKSSKHSSLDCVLRPTEGYLAVAVVKKANEGLTWNSLKDKKSCHTAVDRTAGWNIPMGLIVNQTGSCAFDEFFSQSCAPGADPKSRLCALCAGDDQGLDKCVPNSKEKYYGYTGAFRCLAEDVGDVAFVKNDTVWENTNGESTADWAKNLNREDFRLLCLDGTRKPVTEAQSCHLAVAPNHAVVSRSDRAAHVKQVLLHQQALFGKNGKNCPDKFCLFKSETKNLLFNDNTECLAKLGGRPTYEEYLGTEYVTAIANLKKCSTSPLLEACAFLTR
- Minimal Inhibitory Concentration (Yersinia pestis): >91,400 μg/mL
- inhibition of growth, result in words (Yersinia pestis): did not inhibit Y. pestis growth at any concentration by itself
- Minimal Inhibitory Concentration (B. pseudomallei isolates): >91,429 μg/mL
- concentration of bLF at which all isolates were capable of growth (highest concentration tested) (B. pseudomallei isolates): > 91.429 mg/mL
- inhibition of growth, overall result in words (B. pseudomallei isolates): not directly inhibited
- Minimal Inhibitory Concentration (Burkholderia mallei): ≧91,400 μg/mL
- inhibition of growth, result in words (Burkholderia mallei): generally did not inhibit B. mallei growth by itself
- bacterial growth by T24h compared with positive/untreated control [1]: grew to match or exceed the concentration of the positive control; also recorded: replicate to the same levels as those in the untreated controls
- bactericidal effect, overall result in words [1]: much more minor direct bactericidal effect
- initial reduction in bacterial concentration [1]: 1 to 2 log10
- kill curve: evolution of microbial load during time [1]: impact can be seen at T6h (standalone); also recorded: impact can be seen at T4h (standalone)
- Minimal Inhibitory Concentration (Bacillus anthracis): >91,400 μg/mL
- inhibition of growth, result in words (Bacillus anthracis): no observed inhibition of growth
